According to patent publication US20240182563A1 (GENOME, published 2024):

T1: human CNTN4-rabbit Fc (human; rabbit, UniProt Q8IWV2 19-1000, limits assumed)
T1 construct: not shown: rabbit Fc
T1 sequence (looked up): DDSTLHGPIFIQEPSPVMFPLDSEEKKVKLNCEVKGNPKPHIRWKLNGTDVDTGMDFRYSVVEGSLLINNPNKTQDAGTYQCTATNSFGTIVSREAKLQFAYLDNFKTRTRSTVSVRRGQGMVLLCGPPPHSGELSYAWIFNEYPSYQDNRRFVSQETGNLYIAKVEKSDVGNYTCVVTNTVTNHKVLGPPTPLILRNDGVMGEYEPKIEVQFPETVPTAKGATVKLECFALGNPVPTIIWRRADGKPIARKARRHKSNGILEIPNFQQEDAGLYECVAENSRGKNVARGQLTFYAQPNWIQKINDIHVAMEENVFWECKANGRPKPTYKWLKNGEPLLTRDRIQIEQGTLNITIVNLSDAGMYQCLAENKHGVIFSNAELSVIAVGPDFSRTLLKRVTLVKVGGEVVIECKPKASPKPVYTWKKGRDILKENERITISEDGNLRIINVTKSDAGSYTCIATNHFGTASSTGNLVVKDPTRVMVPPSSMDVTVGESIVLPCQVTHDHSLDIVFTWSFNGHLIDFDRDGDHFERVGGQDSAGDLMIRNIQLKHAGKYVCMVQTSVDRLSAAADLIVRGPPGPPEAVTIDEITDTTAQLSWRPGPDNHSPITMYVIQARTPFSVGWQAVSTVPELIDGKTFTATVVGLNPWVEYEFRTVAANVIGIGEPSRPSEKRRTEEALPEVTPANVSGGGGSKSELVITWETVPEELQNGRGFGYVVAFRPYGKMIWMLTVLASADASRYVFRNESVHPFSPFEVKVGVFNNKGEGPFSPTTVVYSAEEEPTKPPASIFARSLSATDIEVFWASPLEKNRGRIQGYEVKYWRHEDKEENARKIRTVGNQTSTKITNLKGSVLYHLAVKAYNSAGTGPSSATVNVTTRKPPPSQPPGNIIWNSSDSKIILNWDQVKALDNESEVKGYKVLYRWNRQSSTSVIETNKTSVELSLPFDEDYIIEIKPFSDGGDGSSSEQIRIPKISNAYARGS

T2: mouse CNTN4-rabbit Fc (mouse; rabbit, UniProt Q69Z26 19-1000, limits assumed)
T2 construct: not shown: rabbit Fc
T2 sequence (looked up): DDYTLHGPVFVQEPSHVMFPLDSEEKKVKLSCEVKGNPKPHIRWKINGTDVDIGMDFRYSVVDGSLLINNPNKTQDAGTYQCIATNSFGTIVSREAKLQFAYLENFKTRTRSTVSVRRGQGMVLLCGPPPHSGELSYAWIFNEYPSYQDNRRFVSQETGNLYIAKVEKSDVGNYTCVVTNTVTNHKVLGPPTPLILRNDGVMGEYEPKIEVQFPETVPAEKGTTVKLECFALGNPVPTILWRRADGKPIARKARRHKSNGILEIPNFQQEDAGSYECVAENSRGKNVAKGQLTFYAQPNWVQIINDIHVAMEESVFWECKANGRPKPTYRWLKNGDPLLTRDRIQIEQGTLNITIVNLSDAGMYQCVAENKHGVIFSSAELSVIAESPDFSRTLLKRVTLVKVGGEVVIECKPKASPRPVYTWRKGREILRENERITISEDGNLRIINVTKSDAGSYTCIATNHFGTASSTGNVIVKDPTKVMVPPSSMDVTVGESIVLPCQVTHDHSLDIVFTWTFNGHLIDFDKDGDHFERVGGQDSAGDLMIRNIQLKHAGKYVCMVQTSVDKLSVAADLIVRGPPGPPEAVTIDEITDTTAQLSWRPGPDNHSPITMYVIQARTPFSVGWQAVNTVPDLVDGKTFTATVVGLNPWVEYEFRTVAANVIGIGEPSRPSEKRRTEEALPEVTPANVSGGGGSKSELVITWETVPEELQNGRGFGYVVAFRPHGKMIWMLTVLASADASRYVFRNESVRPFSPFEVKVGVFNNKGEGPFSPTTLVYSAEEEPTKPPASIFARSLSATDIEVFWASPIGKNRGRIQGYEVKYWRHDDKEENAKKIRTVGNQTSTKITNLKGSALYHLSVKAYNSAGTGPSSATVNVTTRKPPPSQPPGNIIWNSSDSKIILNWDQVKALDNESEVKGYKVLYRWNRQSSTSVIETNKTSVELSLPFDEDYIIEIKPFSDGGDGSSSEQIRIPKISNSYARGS

T3: human CNTN4 antigen expressed on the cell membrane of 293FT cells (human, UniProt Q8IWV2 19-1000)
T3 construct: whole, on cells; also called Human CNTN4 transfected cell
T3 sequence (looked up): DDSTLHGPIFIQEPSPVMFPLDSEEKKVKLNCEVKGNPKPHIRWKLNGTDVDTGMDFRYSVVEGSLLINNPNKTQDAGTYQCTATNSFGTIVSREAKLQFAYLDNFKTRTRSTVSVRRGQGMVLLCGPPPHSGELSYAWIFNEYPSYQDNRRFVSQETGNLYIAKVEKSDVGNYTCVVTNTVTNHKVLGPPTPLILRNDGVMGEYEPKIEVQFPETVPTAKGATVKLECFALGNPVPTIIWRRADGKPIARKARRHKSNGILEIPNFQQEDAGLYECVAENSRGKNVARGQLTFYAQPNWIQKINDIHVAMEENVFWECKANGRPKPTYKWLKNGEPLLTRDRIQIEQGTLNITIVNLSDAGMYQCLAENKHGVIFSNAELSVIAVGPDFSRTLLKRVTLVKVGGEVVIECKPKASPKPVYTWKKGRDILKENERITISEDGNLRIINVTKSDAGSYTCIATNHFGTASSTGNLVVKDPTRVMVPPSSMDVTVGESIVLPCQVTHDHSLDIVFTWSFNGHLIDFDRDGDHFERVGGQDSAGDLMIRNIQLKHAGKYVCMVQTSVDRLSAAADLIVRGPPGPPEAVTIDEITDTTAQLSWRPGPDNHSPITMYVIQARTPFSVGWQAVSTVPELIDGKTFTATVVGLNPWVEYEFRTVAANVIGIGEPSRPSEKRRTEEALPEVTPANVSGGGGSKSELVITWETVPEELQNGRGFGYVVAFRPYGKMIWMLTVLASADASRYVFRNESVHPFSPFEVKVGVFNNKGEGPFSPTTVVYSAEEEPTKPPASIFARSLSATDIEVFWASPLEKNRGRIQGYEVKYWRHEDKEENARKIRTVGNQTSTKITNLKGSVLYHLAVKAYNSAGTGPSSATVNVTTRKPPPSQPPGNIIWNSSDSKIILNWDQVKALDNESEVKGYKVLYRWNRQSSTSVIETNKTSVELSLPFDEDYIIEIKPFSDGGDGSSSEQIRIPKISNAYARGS


Columns and labels:
[1] = molecular target: T1, human CNTN4-rabbit Fc; assay: ELISA, plate coated with antigen-rabbit Fc, anti-human IgG Fc-HRP
Protocol: (§1) An ELISA tests were performed on a total of 25 scFv-hCks and a total of 27 IgGs for which the expression was confirmed in Example 1.2. An ELISA plate was coated with 200 ng of antigens (human CNTN4-rabbit Fc or mouse CNTN4-rabbit Fc). 200 ng of a negative control (human antigen-rabbit Fc) for a tagging protein was used. For antibody binding, anti-CNTN4 scFv-hCk was serially diluted from a maximum of 1 μM to 0.001 nM by 1/10×each, and anti-CNTN4 IgG was serially diluted from a maximum of 10 nM to 0.00001 nM by 1/10×each, thereby binding to the antigen. Anti-human kappa-HRP or anti-human IgG Fc-HRP was used as the secondary antibody for antibody detection. Color was developed using ABTS, which is a color developing reagent, and the absorbance at 405 nm was measured.

[2] = molecular target: T2, mouse CNTN4-rabbit Fc; assay: as above
Protocol: as §1

[3] = molecular target: T3, human CNTN4 antigen expressed on the …; assay: FACS, 293FT cells transfected with human CNTN4, 40 ug/mL, anti-hFc-PE

Binder	EC50 [1]	EC50 [2]	Shift % [3]
anti-CNTN4 IgG A35WB1 (antibody, V domains shown, human IgG4 (S228P)) VH: AVTLDESGGGLHTPGGALSLVCKASGFTFSSYGMAWVRQAPGKGLEWVAGITSSGSSAGYGPAVKGRATISRDNGQSTVRLQLNNLRAEDTATYYCAKDGYIYSGADSDSIDAWGHGTEVIVSS VL: ALTQPSSVSANPGETVKITCSGGSGSYGWYQQKSPGSAPVTVIYNNDQRPSNIPSRFSGSKSGSTATLTITGVQVEDEAVYFCGGWDSNSGAIFGAGTTLTVL	20 pM	10 pM	83.9%
anti-CNTN4 IgG A13SF8 (antibody, V domains shown, human IgG4 (S228P)) VH: AVTLDESGGGLHTPGGALSLVCKASGFTFSSYGMAWVRQAPGKGLEWVAGITSSGSSAGYGPAVKGRATISRDNGQSTVRLQLNNLRAEDTATYYCAKDGYIYSGADSDSIDAWGHGTEVIVSS VL: ALTQPSSVSANPGGTVKITCSGSGNYGWYQQKSPGSALVTVIYYNDKRPSDIPSRFSGSTSGSTGTLTITGVQVEDEAVYYCGGYDGYSFASIFGAGTTLTVL	10 pM	10 pM	90.4%
anti-CNTN4 IgG A13SF19 (antibody, V domains shown, human IgG4 (S228P)) VH: AVTLDESGGGLHTPGGALSLVCKASGFTFSSYGMAWVRQASGKGLEWVAGITSSGSSAGYGPAVKGRATISRDNGQSTVRLQLNNLRAEDTATYYCAKDGYIYSGADSDSIDAWGHGTEVIVSS VL: ALTQPSSVSANLGGTVEITCSGSSSGNYGWYQQKSPGSAPVTVIYYNDERPSDIPSRFSGSKSGSTGTLTITGVQAEDEAVYYCGGYEGSTYVGIFGAGTTLTVL	10 pM	10 pM	79.6%

Continued by falling EC50 [1], values first:

EC50 [1]	EC50 [2]	Shift % [3]	Binder
10 pM	10 pM	82.4%	anti-CNTN4 IgG A13WB25 (antibody, V domains shown, human IgG4 (S228P)) VH: AVTLDESGGGLHTPGGALSLVCKASGFTFSSYGMAWVRQAPGKGLEWVAGITSSGSSAGYGPAVKGRATISRDNGQSTVRLQLNNLRAEDTATYYCAKDGYIYSGADSDSIDAWGHGTEVIVSS VL: ALTQPSSVSANLGGTVEITCSGGGGSYGWYQQKSPGSAPVTVIYYNDKRPSDIPSRFSGSKSGSTGTLTITGVQAEDEAVYFCGGYDGSTYAGIFGAGTTLTVL
10 pM	10 pM	82.2%	anti-CNTN4 IgG A13SF20 (antibody, V domains shown, human IgG4 (S228P)) VH: AVTLDESGGGLHTPGGALSLVCKASGFTFSSYGMAWVRQAPGKGLEWVAGITSSGSSAGYGPAVKGRATISRDNGQSTVRLQLNNLRAEDTATYYCAKDGYIYSGADSDSIDAWGHGTEVIVSS VL: ALTQPSSVSANLGGTVEITCSGGSGSYGWYQQKAPGSAPVTLIYNSDKRPSDIPSRFSGSKSGSTGTLTITGVQAEDEAVYFCGGYDSSAIFGAGTTLTVL
10 pM	10 pM	86.4%	anti-CNTN4 IgG A13WB73 (antibody, V domains shown, human IgG4 (S228P)) VH: AVTLDESGGGLHTPGGVLSLVCKASGFTFSSYGMAWVRQAPGKGLEWVAGITSSGSSAGYGPAVKGRATISRDNGQSTVRLQLNNLRAEDTATYYCAKDGYIYSGADSDSIDAWGHGTEVIVSS VL: ALTQPSSVSANLGGTVEITCSGGYSGYGWYQQMSPGSAPVTLTYYNDKRPSNIPSRFSGSKSGSTATLAITGVQAEDEAVYYCGSWDTSTNTPIFGAGTTLTVL
